Measured values as given in publication PMC12676389.
pKd: −log10 of the molar value.

Experiments:
[1] = target: β2-adrenergic receptor, construct PN1 (monomeric receptor) (UniProt P07550); assay: BLI; FLAG-tagged β2AR (monomer or AP-bound dimer) captured with 10 μM Iso on SA tips by biotinylated anti-FLAG M1 Fab; Gs 30 nM to 10 μM with 10 μM GDP and 0.1% BSA in NH buffer, 0.01% LMNG, 0.001% CHS; 30°C; KD from equilibrium responses
[2] = target: β2-adrenergic receptor, construct PN1 (monomeric receptor) (UniProt P07550); assay: BLI; as a16, monomeric β2AR with 10 μM AP
[3] = target: AP-7-168-bound β2AR dimer (construct PN1) (UniProt P07550); assay: SEC; AP-bound dimer with nucleotide-free Gs; peak fractions on SDS-PAGE, ratio of β2AR to Gα estimated on gels

With “heterotrimeric Gs (Gαsβ1γ2) (from UniProt P63092 1-394; P62873 1-340; P59768 1-71) (complex)” the pKd [1] was 6.02, the pKd [2] was 5.77 and the stoichiometry N [3] was 2 β2AR per Gα.
